This test addresses receptor of advanced glycation end products (RAGE) (UniProt Q15109 23-404).

This passage reports Kd results from article PMC8627417 (Journal for Immunotherapy of Cancer, 2021).

In general, Kd refers to the free concentration of one partner at which half of the binding sites on the other are occupied at equilibrium, for simple one-to-one binding. Higher therefore signals lower affinity.

Chain of receptor of advanced glycation end products (RAGE) (Q15109 23-404): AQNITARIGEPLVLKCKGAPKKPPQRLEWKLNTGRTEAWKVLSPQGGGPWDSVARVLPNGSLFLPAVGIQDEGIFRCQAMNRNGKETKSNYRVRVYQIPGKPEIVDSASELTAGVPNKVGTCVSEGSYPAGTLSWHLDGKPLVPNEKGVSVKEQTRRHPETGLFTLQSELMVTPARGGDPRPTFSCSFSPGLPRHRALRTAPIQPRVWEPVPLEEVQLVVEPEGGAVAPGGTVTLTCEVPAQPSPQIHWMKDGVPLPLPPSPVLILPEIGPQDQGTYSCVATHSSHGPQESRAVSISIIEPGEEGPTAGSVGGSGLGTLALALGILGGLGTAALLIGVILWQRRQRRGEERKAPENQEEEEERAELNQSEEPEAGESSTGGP

B1: chitinase 3-like 1 (CHI3L1) (natural protein)
chain: not shown
On to B1, for which the Kd is approximately 16 nM.
